Here are results for six molecules from US20190233542A1 (WUXI BIOLOGICS IRELAND, published 2019).

One assay concerns the target T1, rhesus PCSK9 (rhesus, UniProt A8T666 31-692, limits assumed).
T1 construct: A rhesus PCSK9-His from Sino Biological is named only for the ELISA of Section 4.3.2; also called monkey PCSK9; rhesus PCSK9-His
The assay is described as follows: SPR, Biacore T200, antibody captured, monkey PCSK9 as analyte. The protocol: (§1) Antibody binding affinity to human and rhesus PCSK9 was detected by SPR assay using Biacore T200. Each antibody was captured on a Protein A or or anti-human IgG Fc antibody immobilized CM5 sensor chip (GE). Human or rhesus PCSK9 at different concentrations were injected over the sensor chip at a flow rate of 30 μL/min for an association phase of 180 s, followed by 1200 s dissociation. The chip was regenerated by 2 M MgCl₂ after each binding cycle.
(§2) The sensorgrams for blank surface and buffer channel were subtracted from the test sensorgrams. The experimental data was fitted by 1:1 model using Langmiur analysis. Molecular weight of 85 KDa was used to calculate the molar concentration of analyte.
(§3) Kinetic affinities of antibody leads were measured by SPR assay.
(SPR reads the build-up and loss of mass on a sensor chip optically.)

Assay [1] has as its target T2, human PCSK9-mFc-biotin (human, UniProt Q8NBP7 31-692, biotin label (site not stated)).
T2 construct: not shown: murine Fc (mFc) fused at the C-terminus
The assay is described as follows: competitive ELISA, blocking of PCSK9 binding to LDL-R. In general terms: In an ELISA, binding on a coated surface is turned into a signal by an enzyme label.

Assay [2] deals with T3, human PCSK9 (Proprotein Convertase Subtilisin/Kexin type 9) (human, UniProt Q8NBP7 31-692, biotin label in the ELISA formats (site not stated)).
T3 construct: 85 kDa was used as the analyte's mass in SPR; also called PCSK9 (WT); wild type PCSK9
The assay can be described thus: binding ELISA on human PCSK9.

In assay [3] the target is T3, human PCSK9 (Proprotein Convertase …). The assay can be described thus: cell-based or functional assay.
Assay [4] shares this target. The assay is described as follows: SPR, Biacore T200, antibody captured, PCSK9 as analyte. The protocol:
as §1, §2, §3

The target is the same in assay [5]. The assay is described as follows: cell-based or functional assay. This is another data set of the same source.
Assay [6] addresses mutant human PCSK9 (D374Y) (human, UniProt Q8NBP7 31-692). The assay is described as follows: cell-based or functional assay.
The target of assay [7] is T3, human PCSK9 (Proprotein Convertase …). The assay is described as follows: SPR.
The target is the same in assay [8]. The assay can be described thus: SPR. The source holds these as a separate data set.
Assay [9] has the same target. The assay is described as follows: SPR, Biacore T200, antibody captured, PCSK9 as analyte. The method, then:
as §1, §2
This is another data set of the same source.

For assay [10] the target is unchanged. The assay is described as follows: ELISA on biotin-labeled PCSK9 captured on streptavidin, antibody diluted from human serum after 0 to 14 days at 37 C.
The target in assay [11] is T2, human PCSK9-mFc-biotin. The assay can be described thus: competitive ELISA, blocking of PCSK9-mFc-biotin binding to coated LDL-R. The method, then: Blocking assay by ELISA: Plates (Nunc) were coated with LDL-R overnight at 4° C. Hybridoma supernatants were mixed with 250 ng/ml PCSK9-mFc-biotin and incubated at 4° C. overnight. After blocking and washing, the mixture were added to the plates and incubated for 1 h. The plates were then washed and subsequently incubated with streptavidin- HRP. After washing, TMB substrate was added and the interaction was stopped by 2M HCl. The absorbance at 450 nm was read using a microplate reader (Molecular Device).
The activities of reference antibodies 12H11.1.uIgG4K and 24B9.1.uIgG4L to blocking the binding of PCSK9 to LDLR were evaluated by competitive ELISA (FIG. 30) according to the methods described in Section 2.4 Hybridoma screening of EXAMPLE 2.

For assay [12], the target named is T3, human PCSK9 (Proprotein Convertase …). The assay can be described thus: ELISA on streptavidin-captured PCSK9-biotin. The protocol:
Binding assay by ELISA: Plates (Nunc) were coated with Streptavidin at 1 μg/ml overnight at 4° C. After blocking and washing, 250 ng/ml PCSK9-biotin was added and incubated for 1 h. Then hybridoma supernatants were transferred to the plates and incubate at room temperature for 1 h. The plates were then washed and subsequently incubated with secondary antibody goat anti rat IgG1 HRP (Bethyl) and goat anti rat IgG2b HRP (Bethyl) for 45 min. After washing, TMB substrate was added and the interaction was stopped by 2M HCl. The absorbance at 450 nm was read using a microplate reader (Molecular Device).
The activities of reference antibodies 12H11.1.uIgG4K and 24B9.1.uIgG4L binding to human PCSK9 were confirmed by ELISA (FIG. 29), according to the method described in Section 2.4 Hybridoma screening of EXAMPLE 2.

The target is the same in assay [13]. The assay is described as follows: cell-based or functional assay. The source holds these as a separate data set.

B1: 15.14.2-uAb-IgG4L (antibody, V domains shown)
VH: EVQMLESGGGLVQPGGSLRLSCAVSGFTFSRFAMSWVRQAPGKGLDWVSSISDNAGRTYFADSVKGRFTISRDNSKNTLYLQMNSLRADDTAVYYCAKLSNWGPYGMDVWGQGTTVTVSS
VL: QSALTQPPSASGSPGQSVTISCTGTSSDVGYYNYVSWYQQHPGEAPKLMIYEVNKRPSGVPDRFSGSKSGSTASLTVSGLQAVDEADYYCSSYAGSKNFVVFGGGTKLTVL
notes: human IgG4 constant region, lambda light chain
Regarding B1, in the assay with rhesus PCSK9, the dissociation constant (Kd) (as a rule, the equilibrium constant for the complex coming apart) came to 0.687 nM; the koff – broadly, a measure of how fast the partners let go of each other – is 0.00031 s⁻¹; the kon – broadly, the second-order rate constant of association – is 452000 M⁻¹ s⁻¹. In addition, in the assay with human PCSK9-mFc-biotin [1], the IC50 (in general, the concentration that inhibits the measured activity by half) came out at 1.12 nM. The EC50 (in general, the concentration giving half of the maximal effect) in [2] came to 0.031 nM. In addition, the “IC50, LDL-uptake assay in HepG2” value in [3] stood at 80 nM. In assay [4], this molecule displayed a dissociation constant (Kd) of 0.25 nM, a koff of 8.09e-05 s⁻¹ and a kon of 324000 M⁻¹ s⁻¹.

B2: 40409 (hIgG2) (antibody, V domains shown)
VH: QLNLQQSGPGLVNPSQTLSLTCAISGGSVSSNSAAWNWIRQSPSRGLEWLGRIYSRSKWYHDYAVSVKGRITINPDTSKNQFFLQLNSVTPEDTAVYYCARDWETIIWGDDGPNYYNYGLDVWGQGTTVTVSS
VL: DIQMTQSPSSLSASVGDRVTITCRASQGIRNDLGWYQQKPGKAPKRLIYGASSLQSGVPSRFSGSGSGTEFTLTISSLQPEDFATYYCLQHNNYLWTFGQGTKVEIK
B2: in [5], the “IC50 of LDL-uptake restoration, HepG2 cells, PCSK9 (WT)” value stood at 38.3 nM and the “IC50 of LDL-uptake restoration, Huh-7 cells, PCSK9 (WT)” value turned out to be 63.7 nM. Further, in [6], the “IC50 of LDL-uptake restoration, HepG2 cells, PCSK9 (D374Y)” value came out at 2.3 nM and the “IC50 of LDL-uptake restoration, Huh-7 cells, PCSK9 (D374Y)” value was 2.7 nM.

B3: 40409 (hIgG4) (antibody, V domains shown)
VH: B2 VH
VL: B2 VL
notes: human IgG4 constant region
B3: in the assay with rhesus PCSK9, the Kd turned out to be 0.413 nM, the koff amounted to 0.000939 s⁻¹ and the kon amounted to 2.27e+06 M⁻¹ s⁻¹. In addition, in assay [7], the “fold further affinity improvement (over B4G2)” value came out at 2 fold and the “fold higher affinity compared to BMK.115” value stood at 2 fold. In addition, in the assay with human PCSK9-mFc-biotin [1], the IC50 was 1.75 nM. In addition, in assay [2], the EC50 stood at 0.024 nM. In addition, in assay [4], binding was characterised by a dissociation constant (Kd) of 0.0523 nM, the koff was 9.05e-05 s⁻¹ and the kon came out at 1.73e+06 M⁻¹ s⁻¹. In addition, in assay [8], the Kd is 0.0523 nM, the koff is 9.05e-05 s⁻¹ and the kon came out at 1.73e+06 M⁻¹ s⁻¹.

B4: 17.72.3-uAb2-IgG4K (antibody, V domains shown)
VH: QVQLQESGPGLVKPSGTLSLTCAVSGGSIRSYNWWSWVRQPPGEGLEWIGEIHHSGTTNYNPSLKSRVTISVDKSKNQFSLKLSSVTAADTAVYYCARDYSGSYFDYWGQGTLVTVSS
VL: EVVLTQSPATLSLSPGERATLSCRTSQSLSSYVAWSQQKPGQAPRLLIYDASKRATGVPARFSGSGSGTDFTLTISNLEPEDFAVYYCHQRGNWMSSFGQGTKLEIK
notes: human IgG4 constant region, kappa light chain
For B4, in the assay with rhesus PCSK9, binding was characterised by a dissociation constant (Kd) of 20.5 nM, the koff stood at 0.00226 s⁻¹ and the kon came to 110000 M⁻¹ s⁻¹. In the assay with human PCSK9-mFc-biotin [1], this molecule gave an IC50 of 1.67 nM. The molecule also displayed an EC50 in assay [2] of 0.036 nM. Moreover, the “IC50, LDL-uptake assay in HepG2” value in assay [3] came to 106 nM. In assay [4], this molecule gave a Kd of 3.42 nM, a koff of 4.68e-05 s⁻¹ and a kon of 13700 M⁻¹ s⁻¹.

B5: 18.156.8 (hIgG4) (antibody, V domains shown)
VH: QVQLVESGGGVVQPGRSLRLSCAASGFTFSSYGMHWVRQAPGKGLEWMAVIWYDGTNKYYADSVKGRFTISRDNSKNTVYLQMNSLRAEDTAVYYCAREKGLDWGQGTLVTVSS
VL: not shown
notes: as for B4
B5: in assay [9], the Kd came to 0.0688 nM, the koff is 4.47e-05 s⁻¹ and the kon is 649000 M⁻¹ s⁻¹. In the assay with rhesus PCSK9, this molecule registered a Kd of 0.0371 nM, a koff of 3.19e-05 s⁻¹ and a kon of 861000 M⁻¹ s⁻¹. In [10], the EC50 (read off the curve) (commonly the concentration needed to bring the measured effect to its halfway point) was about 0.1 nM. The molecule also yielded an IC50 with human PCSK9-mFc-biotin [1] of 1.22 nM. In [2], this molecule displayed an EC50 of 0.028 nM. The molecule further displayed an IC50 with human PCSK9-mFc-biotin [11] of 0.97 nM. In assay [5], the “IC50 of LDL-uptake restoration, HepG2 cells, PCSK9 (WT)” value turned out to be 65.1 nM and the “IC50 of LDL-uptake restoration, Huh-7 cells, PCSK9 (WT)” value was found to be 76.1 nM. Further, in assay [6], the “IC50 of LDL-uptake restoration, HepG2 cells, PCSK9 (D374Y)” value was found to be 10.8 nM and the “IC50 of LDL-uptake restoration, Huh-7 cells, PCSK9 (D374Y)” value came to 5.2 nM. Also, the EC50 in assay [12] stood at 0.034 nM. For the same molecule, in assay [13], the “EC50, LDL-uptake assay in HepG2” value amounted to 156 nM. In assay [4], this molecule showed a Kd of 0.589 nM, a koff of 0.000146 s⁻¹ and a kon of 248000 M⁻¹ s⁻¹.

B6: 19.3.8-uAb1-IgG4L (antibody, V domains shown)
VH: QVQLVQSGAEVKKPGASVKVSCKASGYTFTGYYINWVRQAPGQGLEWMGRINPNSGGTNYAQKFQGRVTMTRDTSINTAYMELSRLRSDDTAVYFCASWEGTVTTWDFYYYYGMDVWGQGTTVTVSS
VL: QSALTQPASVSGSPGQSITISCTGTSSDVDTYNYVSWYQHHPGKAPKLIIFDVSNRPSGVSNRFSGSKSGNTASLTISGLQAEDEADYYCSSYTSSSTLVVFGGGTKLTVL
notes: as for B1
In the assay with rhesus PCSK9, B6 yielded a Kd of 7.16 nM, a koff of 0.00441 s⁻¹ and a kon of 616000 M⁻¹ s⁻¹. For the same molecule, the IC50 with human PCSK9-mFc-biotin [1] was 2 nM. This molecule came in with an EC50 in assay [2] of 0.13 nM. Further, the “IC50, LDL-uptake assay in HepG2” value in assay [3] came to 115 nM. In assay [4], this molecule returned a Kd of 17.5 nM, a koff of 0.000271 s⁻¹ and a kon of 15400 M⁻¹ s⁻¹.
